Patent US20100151496A1

Molecular target: TRAP-220-EA-Nuc fusion protein
Assay: cell-based or functional assay

EC50 of the small-molecule inverse agonist XCT790 for loss of the β-galactosidase complementation signal (ERRα fusion with coactivator-EA fusion) in CHO cells: 300 nM | S/B (signal/background) of β-galactosidase enzyme fragment complementation in CHO cells; loss of signal with the inverse agonist XCT790: 3 fold
Substance: ERRα (estrogen-related receptor α) fused to the small β-galactosidase fragment (NHR-PK fusion), expressed in CHO cells
